From patent US20100087363A1 (YEDA RESEARCH AND DEVELOPMENT, published 2010) come the findings set out here.

This test concerns the target T1, LDL (low density lipoprotein; Biomedical Technologies, Inc) (UniProt P04114 28-4563).
T1 construct: LDL is a lipoprotein particle (avg. mass 2.5x10^6 Da) of lipid and protein, not a pure protein
Kind of test: size exclusion chromatography (Superose 6) of a pre-incubated LDL + sLDLR mix (7 micromolar each); ratio of bound and free sLDLR peaks by sLDLR ELISA, assuming 5-fold dilution. The procedure:
Therefore, we employed another method for testing the binding of sLDLR to LDL. For this purpose, we incubated for 1 h at 37° C. a solution of LDL (Biomedical technologies, Inc, Ma, USA) and r-hsLDLR of Example 5 at a final concentration of 7 micromolar each in PBS plus 10 micromolar Calcium Chloride (PBS+). An aliquot of 0.1 ml was subjected to size exclusion chromatography on a Superose 6 HR 10/30 column (GE Healthcare Life Sciences Cat. No 17-5172-01). The column was eluted with PBS+ at a flow rate of 0.4 ml/min and fractions of 0.5 ml were collected. The concentration of r-hsLDLR was determined by a specific ELISA as follows:
Mab #28 anti-human sLDLR (5 microgram/ml in PBS; corresponding to Mab from hybridoma clone 28 deposited at the CNCM under No. 1-2391-U.S. Pat. No. 6,849,720) was used for coating of 96-well ELISA plates at 0.1 ml/well overnight at room temperature. The plates were then washed ×3 with PBS containing 0.05% Tween-20 and then blocked by 0.3 ml blocking buffer (1% bovine serum albumin, 5% sucrose, 0.05% sodium azide in PBS). The plates were then washed 3× with PBS. […] The plated were then washed 3× with reagent diluent, a substrate solution (0.1 ml TMB/E, Chemicon) is added to each well and the plates were either read within 5 min at 630 nm or stopped with H₂SO₄ (2 N 0.05 ml) and read at 450 nm.

B1: recombinant human soluble LDL receptor, amino acid residues 25-352 of the LDLR precursor, expressed in CHO cells (receptor)
chain: not shown
modifications: N-glycosylated at Asn 272 of the LDLR precursor
notes: range 25-352; Produced in DHFR-deficient CHO cells (InterPharm Laboratories); also called sLDLR; r-hsLDLR
In the case of B1, the Kd – broadly, the equilibrium constant for the complex coming apart – was ~10 nM.
